Laboratory results from patent publication US6905854B2, “Mutated penicillin expandase and process for preparing 7-ADCA using the same” (Synmax Biochemical Co., Ltd., priority 2002, dated 2005).
Residue numbers refer to the chain shown, from its start. Names may count otherwise.

B1: YS125: mutated DAOCS with substitution N304L as disclosed in Chin H. S. et al (protein, UniProt P18548 1-311, looked up, variant N304L)
Deacetoxycephalosporin C …: MDTTVPTFSLAELQQGLHQDEFRRCLRDKGLFYLTDCGLTDTELKSAKDLVIDFFEHGSEAEKRAVTSPVPTMRRGFTGLESESTAQITNTGSYSDYSMCYSMGTADNLFPSGDFERIWTQYFDRQYTASRAVAREVLRATGTEPDGGVEAFLDCEPLLRFRYFPQVPEHRSAEEQPLRMAPHYDLSMVTLIQQTPCANGFVSLQAEVGGAFTDLPYRPDAVLVFCGAIATLVTGGQVKAPRHHVAAPRRDQIAGSSRTSSVFFLRPNADFTFSVPLARECGFDVSLDGETATFQDWIGGNYVLIRRTSKA
B2: SC59: DNA-shuffled combined DAOCS mutant with C155Y, Y184H, V275I and C281Y (protein, UniProt P18548 1-311, looked up, variant C155Y Y184H V275I C281Y)
Deacetoxycephalosporin C …: B1 Deacetoxycephalosporin C … with C155Y, Y184H, V275I, C281Y, L304N
B3: YS103: mutated penicillin expandase (DAOCS) with substitution M188V (protein, UniProt P18548 1-311, looked up, variant M188V)
Deacetoxycephalosporin C …: B1 Deacetoxycephalosporin C … with M188V, L304N
B4: EC12: mutated penicillin expandase (DAOCS) with substitution L277Q (protein, UniProt P18548 1-311, looked up, variant L277Q)
Deacetoxycephalosporin C …: B1 Deacetoxycephalosporin C … with L277Q, L304N
B5: YS115: mutated penicillin expandase (DAOCS) with substitution M73T (protein, UniProt P18548 1-311, looked up, variant M73T)
Deacetoxycephalosporin C …: B1 Deacetoxycephalosporin C … with M73T, L304N
B6: YS123: mutated penicillin expandase (DAOCS) with substitution H244Q (protein, UniProt P18548 1-311, looked up, variant H244Q)
Deacetoxycephalosporin C …: B1 Deacetoxycephalosporin C … with H244Q, L304N
B7: YS59: mutated penicillin expandase (DAOCS) with substitution G79E (protein, UniProt P18548 1-311, looked up, variant G79E)
Deacetoxycephalosporin C …: B1 Deacetoxycephalosporin C … with G79E, L304N
B8: YS110: mutated penicillin expandase (DAOCS) with substitution Y184H (protein, UniProt P18548 1-311, looked up, variant Y184H)
Deacetoxycephalosporin C …: B1 Deacetoxycephalosporin C … with Y184H, L304N
B9: YS67: mutated penicillin expandase (DAOCS) with substitutions V275I and I305M (protein, UniProt P18548 1-311, looked up, variant V275I I305M)
Deacetoxycephalosporin C …: B1 Deacetoxycephalosporin C … with V275I, L304N, I305M
B10: YH2: mutated penicillin expandase (DAOCS) with substitution H244R (protein, UniProt P18548 1-311, looked up, variant H244R)
Deacetoxycephalosporin C …: B1 Deacetoxycephalosporin C … with H244R, L304N
B11: YS71: mutated penicillin expandase (DAOCS) with substitution A106T (protein, UniProt P18548 1-311, looked up, variant A106T)
Deacetoxycephalosporin C …: B1 Deacetoxycephalosporin C … with A106T, L304N
B12: YS72: mutated penicillin expandase (DAOCS) with substitution C155Y (protein, UniProt P18548 1-311, looked up, variant C155Y)
Deacetoxycephalosporin C …: B1 Deacetoxycephalosporin C … with C155Y, L304N
B13: YS53: mutated penicillin expandase (DAOCS) with substitution C281Y (protein, UniProt P18548 1-311, looked up, variant C281Y)
Deacetoxycephalosporin C …: B1 Deacetoxycephalosporin C … with C281Y, L304N
B14: YS87: mutated penicillin expandase (DAOCS) with substitution T91A (protein, UniProt P18548 1-311, looked up, variant T91A)
Deacetoxycephalosporin C …: B1 Deacetoxycephalosporin C … with T91A, L304N
B15: YS69: mutated penicillin expandase (DAOCS) with substitution M188I (protein, UniProt P18548 1-311, looked up, variant M188I)
Deacetoxycephalosporin C …: B1 Deacetoxycephalosporin C … with M188I, L304N
B16: YS5: mutated penicillin expandase (DAOCS) with substitution V275I (protein, UniProt P18548 1-311, looked up, variant V275I)
Deacetoxycephalosporin C …: B1 Deacetoxycephalosporin C … with V275I, L304N
B17: YS74: combined DAOCS mutant, mutated sites 275I, 304K, 305L (protein, UniProt P18548 1-311, looked up, variant V275I N304K I305L)
Deacetoxycephalosporin C …: B1 Deacetoxycephalosporin C … with V275I, L304K, I305L
B18: YS81: combined DAOCS mutant, mutated sites 275I, 281Y, 305M (protein, UniProt P18548 1-311, looked up, variant V275I C281Y I305M)
Deacetoxycephalosporin C …: B1 Deacetoxycephalosporin C … with V275I, C281Y, L304N, I305M
B19: SC39: combined DAOCS mutant, mutated sites 73T, 281Y (protein, UniProt P18548 1-311, looked up, variant M73T C281Y)
Deacetoxycephalosporin C …: B1 Deacetoxycephalosporin C … with M73T, C281Y, L304N
B20: YS100: combined DAOCS mutant, mutated sites 79E, 275I, 305L (protein, UniProt P18548 1-311, looked up, variant G79E V275I I305L)
Deacetoxycephalosporin C …: B1 Deacetoxycephalosporin C … with G79E, V275I, L304N, I305L
B21: YS88: combined DAOCS mutant, mutated sites 79E, 275I, 281Y (protein, UniProt P18548 1-311, looked up, variant G79E V275I C281Y)
Deacetoxycephalosporin C …: B1 Deacetoxycephalosporin C … with G79E, V275I, C281Y, L304N

Experiment: Kinetic assay of purified DAOCS with penicillin G (standard penicillin G assay, HPLC of cephalosporin G)
Format: biochemical
Settings: for penicillin G; 20 μg purified DAOCS, 1 mM α-ketoglutarate, 30° C.
Procedure: (§1) For penicillin G, 20 μl of cell extracts was added into a standard 200 μl assay reaction containing 50 mM Mops/pH 7.5, 4 mM ascorbate, 1 mM FeSO4, 4 mM α-ketoglutarate and 7 mM penicillin G, and incubated at 30° C. for 20 minutes. The reaction was stopped by addition of 200 μl of ethanol, followed by a centrifugation at 15,000×g for 5 minutes. The concentration of cephalosporin G in supernatant was analyzed by HPLC with 40 μl injection. The mobile phase was 25 mM potassium phosphate/pH 6.5 with 19% acetonitrile at a flow rate of 1 ml/min. The retention time for cephalosporin G was 8.5 minutes and 12.5 minutes for penicillin G with detection at 215 nm, and the product at 8.5 minutes in DAOCS reaction was confirmed by ESI-LC/MS (positive): [M+H]^+=333. […] The different combinations of the mutated amino acids mentioned above were also constructed by site-directed mutagenesis.
(§2) The cell extract (2 ml) of a candidate mutant was applied onto a HiTrap Q column (5 ml) pre-equilibrated with buffer B (50 mM Mops/pH 7.5, 1 mM DTT, 0.4 mM pefabloc SC, and 0.5 μg/ml leupeptin). Then, the column was washed with 20 ml of buffer B, followed by a further wash with 25 ml of buffer B containing 120 mM NaCl, and DAOCS was eluted off with 20 ml of buffer B containing 150 mM NaCl. The DAOCS containing fractions were pooled (10 ml), concentrated by UF 15 device (NMWL 5K; Millipore), and loaded onto a Hiload Superdex 75 (16/60) column pre-equilibrated with buffer B at a flow rate of 1 ml/min.
(§3) The standard penicillin G assay was followed for kinetic assay, but 20 μg of purified DAOCS was used and the concentration of α-ketoglutarate was reduced to 1 mM. Kinetic parameters were obtained from triplicate experiments by Hanes-Woolf Plot. For assays using penicillin N as a main substrate, a total volume of 240 μl reaction containing 50 mM Hepes/pH 7.5, 0.4 mM ascorbate, 0.1 mM FeSO4, 0.1 mM α-ketoglutarate, 0.1 mM penicillin N and 0.5 μg of purified DAOCS was incubated at 30° C. for 10 minutes, then the same volume of 10 mM EDTA/pH 7.5 was added, and the mixture was subjected to ultrafiltration with UF 0.5 device (NMWL 5000, Millipore). The filtrate was analyzed by HPLC using 25 mM potassium phosphate/pH 6.5 as a mobile phase. The retention time of DAOC and penicillin N was 12 minutes and 13.5 minutes, respectively The results of kinetic parameters are shown in Table 1, wherein the definition and calculation of the parameters are described in Lehninger et al. Principles of Biochemistry, 2nd Ed. Worth Publishers, New York (1993) which is incorporated herein for reference.
Molecule B1 has a kcat of 0.0402 ± 0.0006 S^−1. Molecule B2 has a kcat of 0.1398 ± 0.0015 S^−1. Work on B3 yielded a kcat of 0.0456 ± 0.0016 S^−1. B4 gave a kcat of 0.1036 ± 0.0012 S^−1. For B5, the kcat was 0.0627 ± 0.0021 S^−1. Work on B6 yielded a kcat of 0.0698 ± 0.0012 S^−1. For B7, the kcat was 0.0315 ± 0.0003 S^−1. B8 showed a kcat of 0.0798 ± 0.0012 S^−1. B9 showed a kcat of 0.1458 ± 0.0038 S^−1. In the case of B10, the kcat is reported as 0.0672 ± 0.0008 S^−1. For B11, the kcat was 0.0453 ± 0.0009 S^−1. In the case of B12, the kcat is reported as 0.0476 ± 0.0012 S^−1. B13 showed a kcat of 0.0744 ± 0.0033 S^−1. B14 showed a kcat of 0.0522 ± 0.0004 S^−1. In the case of B15, the kcat is reported as 0.0507 ± 0.0006 S^−1. In the case of B16, the kcat is reported as 0.0502 ± 0.0012 S^−1.

Same assay, conditions: for penicillin G; 20 μg purified DAOCS, 1 mM α-ketoglutarate, 30° C.; triplicate, Hanes-Woolf Plot
Work on B1 yielded a Km of 550 ± 120 µM. Molecule B2 has a Km of 190 ± 2 µM. Molecule B3 has a Km of 760 ± 170 µM. B4 showed a Km of 1020 ± 20 µM. B5 gave a Km of 740 ± 160 µM. B6 gave a Km of 1390 ± 90 µM. B7 gave a Km of 750 ± 20 µM. With B8 the Km was 950 ± 50 µM. B9 showed a Km of 250 ± 80 µM. For B10, the Km was 2450 ± 40 µM. With B11 the Km was 1770 ± 150 µM. Work on B12 yielded a Km of 1760 ± 50 µM. In the case of B13, the Km is reported as 680 ± 340 µM. Molecule B14 has a Km of 1360 ± 90 µM. For B15, the Km was 1960 ± 90 µM. With B16 the Km was 1680 ± 200 µM.

Experiment: Kinetic assay of purified DAOCS with penicillin N as main substrate
Format: biochemical
Settings: for penicillin N; 0.5 μg purified DAOCS, 30° C., 10 minutes
Procedure: as §2, §3
B1 gave a kcat of 0.415 ± 0.063 S^−1. With B2 the kcat was 0.048 ± 0.001 S^−1. Molecule B3 has a kcat of 0.084 ± 0.002 S^−1. B4 gave a kcat of 0.297 ± 0.020 S^−1. B5 showed a kcat of 0.239 ± 0.009 S^−1. In the case of B6, the kcat is reported as 0.260 ± 0.006 S^−1. Molecule B7 has a kcat of 0.178 ± 0.019 S^−1. B8 showed a kcat of 0.048 ± 0.005 S^−1. B9 showed a kcat of 0.316 ± 0.032 S^−1. In the case of B10, the kcat is reported as 0.236 ± 0.005 S^−1. B11 gave a kcat of 0.277 ± 0.014 S^−1. Work on B12 yielded a kcat of 0.235 ± 0.008 S^−1. Work on B13 yielded a kcat of 0.273 ± 0.014 S^−1. For B14, the kcat was 0.247 ± 0.006 S^−1. B15 gave a kcat of 0.277 ± 0.004 S^−1. Molecule B16 has a kcat of 0.252 ± 0.020 S^−1.

Same assay, conditions: for penicillin N; 0.5 μg purified DAOCS, 30° C., 10 minutes; triplicate, Hanes-Woolf Plot
Work on B1 yielded a Km of 18 ± 4 µM. For B2, the Km was 92 ± 0.5 µM. In the case of B3, the Km is reported as 47 ± 0.5 µM. With B4 the Km was 11 ± 1.5 µM. For B5, the Km was 6 ± 3 µM. Molecule B6 has a Km of 9 ± 1.5 µM. With B7 the Km was 9 ± 3 µM. In the case of B8, the Km is reported as 295 ± 30 µM. With B9 the Km was 13 ± 5 µM. With B10 the Km was 8 ± 1 µM. For B11, the Km was 13 ± 2 µM. B12 gave a Km of 16 ± 0.5 µM. In the case of B13, the Km is reported as 6 ± 1 µM. With B14 the Km was 9 ± 0.5 µM. For B15, the Km was 11 ± 1 µM. Molecule B16 has a Km of 12 ± 3 µM.

Experiment: Relative activity of purified combined mutants compared to wild type DAOCS
Format: biochemical
Settings: 1 mM penicillin G; activity of wild-type DAOCS as 100%
Procedure: as §1, §3
The relative activities of the mutants are determined according to Chin H. S. et al supra with the activity of wild-type DAOCS as 100% and shown in Table 2. The assay was performed with 1 mM penicillin G, and the other conditions were the same as standard assay.
In the case of B17, the “Relative Activities” value is reported as 300%. With B18 the “Relative Activities” value was 1290%. For B19, the “Relative Activities” value was 610%. For B20, the “Relative Activities” value was 470%. With B9 the “Relative Activities” value was 500%. For B21, the “Relative Activities” value was 430%.
